Source: PMC7714695

Target: recombinant H2AK119Ub mono-nucleosomes (UniProt P04908)
Experiment: AlphaScreen or HTRF; Alphalisa: GST-SSX or GST-SSXdel7aa titrated against 10nM biotinylated nucleosomes; EC50 by nonlinear regression

Chain of GST-SSX1 (78aa) (Q16384 111-188): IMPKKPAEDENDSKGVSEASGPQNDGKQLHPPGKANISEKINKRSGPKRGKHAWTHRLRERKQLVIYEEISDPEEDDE

For “GST-SSX1 (78aa) (from UniProt Q16384 111-188) (domain or fragment)”, the fold difference (Ub/unmod) by AlphaLisa was 4.8 fold.
